Molecular target: T1, hu-IL-7Rα subunit (human, UniProt P16871 21-239, limits assumed)
T1 construct: also called human interleukin-7 receptor subunit α; CD127
T1 sequence (looked up): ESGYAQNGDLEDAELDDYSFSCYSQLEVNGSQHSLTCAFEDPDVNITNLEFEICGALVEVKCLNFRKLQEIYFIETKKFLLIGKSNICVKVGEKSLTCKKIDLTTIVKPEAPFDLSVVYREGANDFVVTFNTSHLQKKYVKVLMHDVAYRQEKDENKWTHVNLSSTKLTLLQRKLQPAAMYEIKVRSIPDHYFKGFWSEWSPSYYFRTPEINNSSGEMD
Assay: phage ELISA competition assay

B1: SEQ ID NO 112 (peptide)
peptide: SLTVPWCTLDPGSMQCAWLQNR
notes: also called IL-7Rα ligand
IC50: < 10 µM

Reference: patent publication US20240100159A1, “USE OF IL-7R-ALPHA-GAMMA AGONIST PEPTIDES IN CELL MANUFACTURING” (MEDIKINE, INC., priority 2022, published 2024)
